Experimental data as given in patent US7091311.
*1 amine or outer side, *2 acyl side, *3 side chain or, on linkers, in order; H or OH if unused. Bridges are numbered along the chain shown (N, C = ends). Where no end group is shown, it is not given here. [ ]: non-standard residue; d: D form. NMeSer(Bzl) = N-methyl-O-benzyl-serine, CN([C@@H](COCc1ccccc1)C(=O)[*:2])[*:1]; Phe(4-NO2) = N[C@@H](Cc1ccc([N+](=O)[O-])cc1)C(=O)O; Phe(3,4-Cl2) = N[C@@H](Cc1ccc(Cl)c(Cl)c1)C(=O)O; DiPhAla = diphenylalanine (source's own name); Ser(Bzl) = O=C([C@H](COCc1ccccc1)N[*:1])[*:2]; Phe(4-Cl) = N[C@@H](Cc1ccc(Cl)cc1)C(=O)O; 1Nal = N[C@@H](Cc1cccc2ccccc12)C(=O)O; 2Nal = N[C@@H](Cc1ccc2ccccc2c1)C(=O)O; hPhe = N[C@@H](CCc1ccccc1)C(=O)O; 2Thi = N[C@@H](Cc1cccs1)C(=O)O; Cha = N[C@@H](CC1CCCCC1)C(=O)O; Phg = N[C@H](C(=O)O)c1ccccc1; Tle = CC(C)(C)[C@H](N)C(=O)O; NMeV = CN[C@H](C(=O)O)C(C)C; NMeA = CN[C@@H](C)C(=O)O; Nle = CCCC[C@H](N)C(=O)O; Nva = CCC[C@H](N)C(=O)O; Abu = CC[C@H](N)C(=O)O; Aib = CC(C)(N)C(=O)O; Sar = CNCC(=O)O

Target: soluble TPO-R (UniProt P40238)
Sequence (P40238 26-491): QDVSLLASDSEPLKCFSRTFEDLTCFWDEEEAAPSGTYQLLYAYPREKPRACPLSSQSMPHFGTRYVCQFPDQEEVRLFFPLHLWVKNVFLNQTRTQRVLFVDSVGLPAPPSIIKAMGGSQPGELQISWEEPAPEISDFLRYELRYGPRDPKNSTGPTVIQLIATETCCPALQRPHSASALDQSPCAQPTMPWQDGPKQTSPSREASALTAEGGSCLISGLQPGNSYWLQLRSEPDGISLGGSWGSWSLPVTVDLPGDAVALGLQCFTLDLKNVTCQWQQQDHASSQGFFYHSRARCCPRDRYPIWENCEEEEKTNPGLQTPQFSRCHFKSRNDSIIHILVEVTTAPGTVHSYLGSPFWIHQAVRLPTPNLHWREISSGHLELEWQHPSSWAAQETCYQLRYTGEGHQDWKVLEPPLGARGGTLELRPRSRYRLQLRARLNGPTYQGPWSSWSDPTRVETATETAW
Test: competition ELISA vs MBP-TPO156

| Binder | IC50 [nM] |
| --- | --- |
| CADGPTLREWI[Sar]FC (disulfide 1-14 (inferred); not fully specified) [SEQ ID NO:12 cyclized, S - Sar] | < 500 |
| CADGPTLREWIS[2Thi]C (disulfide 1-14 (inferred); not fully specified) [SEQ ID NO:12 cyclized, F - Thi] | < 500 |
| CADGPTLREWIS[1Nal]C (disulfide 1-14 (inferred); not fully specified) [SEQ ID NO:12 cyclized, F - (1-Nal)] | < 500 |
| CADGPTLREWI[NMeSer(Bzl)]FC (disulfide 1-14 (inferred); not fully specified) [SEQ ID NO:12 cyclized, S - [N-Me-Ser(Bzl)]] | < 200000 |
| ADGPTLREWISFC (also: further groups not given here) [[drawing CHEM-US-00036] (SEQ ID NO:173)(SEQ ID NO:173)] | < 500 |
| CADGPTLREWIS[Phe(4-NO2)]C (disulfide 1-14 (inferred); not fully specified) [SEQ ID NO:12 cyclized, F - (p-Nitrophe)] | < 500 |
| TLREWISFC (also: further groups not given here) [[drawing CHEM-US-00042] (SEQ ID NO:192)(SEQ ID NO:192)] | 200000 |
| CADGPTLREWI[Abu]FC (disulfide 1-14 (inferred); not fully specified) [SEQ ID NO:12 cyclized, S - Abu] | < 500 |
| CADGPTLREWIS[Pyridylala]C (not fully specified (bridges); also: cyclized, type not given here) [SEQ ID NO:12 cyclized, F - (Pyridylala)] | < 500 |
| TLREWISFC (also: further groups not given here) [[drawing CHEM-US-00043] (SEQ ID NO:192)(SEQ ID NO:192)] | 200000 |
| ADGPTLREWISFC (also: further groups not given here) [[drawing CHEM-US-00027] / [drawing CHEM-US-00028] (SEQ ID NO:173)] | < 500 |
| CADGPTLREWIS[hPhe]C (disulfide 1-14 (inferred); not fully specified) [SEQ ID NO:12 cyclized, F - Homo-Phe] | < 500 |
| CADGPTLREWIS[Phe(4-Cl)]C (disulfide 1-14 (inferred); not fully specified) [SEQ ID NO:12 cyclized, F - (p-Cl-Phe)] | < 500 |
| GPTLREWISFC (not fully specified; also: further groups not given here) [[drawing CHEM-US-00038] (SEQ ID NO:190)(SEQ ID NO:190)] | < 500 |
| GPTLREWISFC (not fully specified; also: further groups not given here) [[drawing CHEM-US-00039] (SEQ ID NO:190)(SEQ ID NO:190)] | < 200000 |
| CADGPTLREWI[Aib]FC (disulfide 1-14 (inferred); not fully specified) [SEQ ID NO:12 cyclized, S - Aib] | < 500 |
| CADGPTLREWIS[Ser(Bzl)]C (disulfide 1-14 (inferred); not fully specified) [SEQ ID NO:12 cyclized, F - (Ser(Bzl))] | < 500 |

| Binder | IC50 [nM] |
| --- | --- |
| CADGPTLREWI[Tle]FC (disulfide 1-14 (inferred); not fully specified) [SEQ ID NO:12 cyclized, S - (t-Bu-Gly)] | < 500 |
| PTLREWISFC (not fully specified; also: further groups not given here) [[drawing CHEM-US-00040] (SEQ ID NO:191)(SEQ ID NO:191)] | < 500 |
| ADGPTLREWISFC (not fully specified; also: further groups not given here) [[drawing CHEM-US-00013] (SEQ ID NO:173)] | < 500 |
| ADGPTLREWISFC (also: further groups not given here) [[drawing CHEM-US-00035] (SEQ ID NO:173)(SEQ ID NO:173)] | < 500 |
| CADGPTLREWI[NMeV]FC (disulfide 1-14 (inferred); not fully specified) [SEQ ID NO:12 cyclized, S - (N-Me-Val)] | 200000 |
| CADGPTLREWIS[Phe(3,4-Cl2)]C (disulfide 1-14 (inferred); not fully specified) [SEQ ID NO:12 cyclized, F - (3,4-di-Cl-Phe)] | < 500 |
| CADGPTLREWIS[Cha]C (disulfide 1-14 (inferred); not fully specified) [SEQ ID NO:12 cyclized, F - CHA] | < 500 |
| ADGPTLREWISFC (not fully specified; also: further groups not given here) [[drawing CHEM-US-00006] (SEQ ID NO:173)] | 200000 |
| PTLREWISFC (not fully specified; also: further groups not given here) [[drawing CHEM-US-00041] (SEQ ID NO:191)(SEQ ID NO:191)] | 200000 |
| CADGPTLREWIS[NMeA]C (disulfide 1-14 (inferred); not fully specified) [SEQ ID NO:12 cyclized, F - (N-Me-Ala)] | 200000 |
| CADGPTLREWIS[DiPhAla]C (disulfide 1-14 (inferred); not fully specified) [SEQ ID NO:12 cyclized, F - (DiPh - Ala)] | < 500 |
| CADGPTLREWIS[2Nal]C (disulfide 1-14 (inferred); not fully specified) [SEQ ID NO:12 cyclized, F - (2-Nal)] | < 500 |
| CADGPTLREWIS[Phg]C (disulfide 1-14 (inferred); not fully specified) [SEQ ID NO:12 cyclized, F - (Phenylgly)] | < 500 |
| CADGPTLREWI[Nle]FC (disulfide 1-14 (inferred); not fully specified) [SEQ ID NO:12 cyclized, S - (Nor-Leu)] | < 500 |
| CADGPTLREWI[NMeA]FC (disulfide 1-14 (inferred); not fully specified) [SEQ ID NO:12 cyclized, S - (N-Me-Ala)] | < 200000 |
| CADGPTLREWI[Nva]FC (disulfide 1-14 (inferred); not fully specified) [SEQ ID NO:12 cyclized, S - Nva] | < 500 |
